Measured values as given in patent publication US20250171562A1.

B1: CIgG4F1A1(RS) (Fc fusion)
chain 1: GPPCPPCPAPEFLGGPSVFLFPPKPKDTLMISRTPEVTCVVVDVSQEDPEVQFNWYVDGVEVHNAKTKPREEQFNSTYRVVSVLTVLHQDWLNGKEYKCKVSNKGLPSSIEKTISKAKGQPREPQVYTLPPCQEEMTKNQVSLWCLVKGFYPSDIAVEWESNGQPENNYKTTPPVLDSDGSFFLYSRLTVDKSRWQEGNVFSCSVMHEALHNHYTQKSLSLSLGKRSDVQLQESGGGLVQAGGSLKLSCAASGGSLSRYDMGWFRQAPGKEREFVARISWSGTTKYYADAVKGRFAISRDNAKNTVYLQMNSLKPEDTAVYYCAAAFYGNRGYYDVNAYTSSGQGTQVTVS
chain 2: GPPCPPCPAPEFLGGPSVFLFPPKPKDTLMISRTPEVTCVVVDVSQEDPEVQFNWYVDGVEVHNAKTKPREEQFNSTYRVVSVLTVLHQDWLNGKEYKCKVSNKGLPSSIEKTISKAKGQPREPQVCTLPPSQEEMTKNQVSLSCAVKGFYPSDIAVEWESNGQPENNYKTTPPVLDSDGSFFLVSRLTVDKSRWQEGNVFSCSVMHEALHNHYTQKSLSLSLGKRSEVQLLESGGGLVQPGGSLRLSCAASGFTFGNYDMAWVRQAPGKRPEWVSSIDTGGDITHYADSVKGRFTISRDNAKNTLYLQMNSLRPEDTAVYWCATDEEYALGPNEFDYYGQGTLVTVSS
B2: NIgG4F1A1(G4S)1 (Fc fusion)
chain 1: DVQLQESGGGLVQAGGSLKLSCAASGGSLSRYDMGWFRQAPGKEREFVARISWSGTTKYYADAVKGRFAISRDNAKNTVYLQMNSLKPEDTAVYYCAAAFYGNRGYYDVNAYTSSGQGTQVTVSGGGGSGPPCPPCPAPEFLGGPSVFLFPPKPKDTLMISRTPEVTCVVVDVSQEDPEVQFNWYVDGVEVHNAKTKPREEQFNSTYRVVSVLTVLHQDWLNGKEYKCKVSNKGLPSSIEKTISKAKGQPREPQVYTLPPCQEEMTKNQVSLWCLVKGFYPSDIAVEWESNGQPENNYKTTPPVLDSDGSFFLYSRLTVDKSRWQEGNVFSCSVMHEALHNHYTQKSLSLSLGK
chain 2: EVQLLESGGGLVQPGGSLRLSCAASGFTFGNYDMAWVRQAPGKRPEWVSSIDTGGDITHYADSVKGRFTISRDNAKNTLYLQMNSLRPEDTAVYWCATDEEYALGPNEFDYYGQGTLVTVSSGGGGSGPPCPPCPAPEFLGGPSVFLFPPKPKDTLMISRTPEVTCVVVDVSQEDPEVQFNWYVDGVEVHNAKTKPREEQFNSTYRVVSVLTVLHQDWLNGKEYKCKVSNKGLPSSIEKTISKAKGQPREPQVCTLPPSQEEMTKNQVSLSCAVKGFYPSDIAVEWESNGQPENNYKTTPPVLDSDGSFFLVSRLTVDKSRWQEGNVFSCSVMHEALHNHYTQKSLSLSLGK
B3: NIgG4F1A1(RS) (Fc fusion)
chain 1: DVQLQESGGGLVQAGGSLKLSCAASGGSLSRYDMGWFRQAPGKEREFVARISWSGTTKYYADAVKGRFAISRDNAKNTVYLQMNSLKPEDTAVYYCAAAFYGNRGYYDVNAYTSSGQGTQVTVSRSGPPCPPCPAPEFLGGPSVFLFPPKPKDTLMISRTPEVTCVVVDVSQEDPEVQFNWYVDGVEVHNAKTKPREEQFNSTYRVVSVLTVLHQDWLNGKEYKCKVSNKGLPSSIEKTISKAKGQPREPQVYTLPPCQEEMTKNQVSLWCLVKGFYPSDIAVEWESNGQPENNYKTTPPVLDSDGSFFLYSRLTVDKSRWQEGNVFSCSVMHEALHNHYTQKSLSLSLGK
chain 2: EVQLLESGGGLVQPGGSLRLSCAASGFTFGNYDMAWVRQAPGKRPEWVSSIDTGGDITHYADSVKGRFTISRDNAKNTLYLQMNSLRPEDTAVYWCATDEEYALGPNEFDYYGQGTLVTVSSRSGPPCPPCPAPEFLGGPSVFLFPPKPKDTLMISRTPEVTCVVVDVSQEDPEVQFNWYVDGVEVHNAKTKPREEQFNSTYRVVSVLTVLHQDWLNGKEYKCKVSNKGLPSSIEKTISKAKGQPREPQVCTLPPSQEEMTKNQVSLSCAVKGFYPSDIAVEWESNGQPENNYKTTPPVLDSDGSFFLVSRLTVDKSRWQEGNVFSCSVMHEALHNHYTQKSLSLSLGK
B4: CIgG4E4A1(G4S)1 (Fc fusion)
chain 1: GPPCPPCPAPEFLGGPSVFLFPPKPKDTLMISRTPEVTCVVVDVSQEDPEVQFNWYVDGVEVHNAKTKPREEQFNSTYRVVSVLTVLHQDWLNGKEYKCKVSNKGLPSSIEKTISKAKGQPREPQVYTLPPCQEEMTKNQVSLWCLVKGFYPSDIAVEWESNGQPENNYKTTPPVLDSDGSFFLYSRLTVDKSRWQEGNVFSCSVMHEALHNHYTQKSLSLSLGKGGGGSDVQLQESGGGLVQPGGSLRLSCAASGFRFSNYAMRWYRQAPGKEREFVARISSTGFITRYTASVRDRFTISRDNDKNMMYLQLNKLTPQDTAHYYCNAESTDYWGQGTQVTVS
chain 2: GPPCPPCPAPEFLGGPSVFLFPPKPKDTLMISRTPEVTCVVVDVSQEDPEVQFNWYVDGVEVHNAKTKPREEQFNSTYRVVSVLTVLHQDWLNGKEYKCKVSNKGLPSSIEKTISKAKGQPREPQVCTLPPSQEEMTKNQVSLSCAVKGFYPSDIAVEWESNGQPENNYKTTPPVLDSDGSFFLVSRLTVDKSRWQEGNVFSCSVMHEALHNHYTQKSLSLSLGKGGGGSEVQLLESGGGLVQPGGSLRLSCAASGFTFGNYDMAWVRQAPGKRPEWVSSIDTGGDITHYADSVKGRFTISRDNAKNTLYLQMNSLRPEDTAVYWCATDEEYALGPNEFDYYGQGTLVTVSS
B5: CIgG4E4A1(G4S)3 (Fc fusion)
chain 1: GPPCPPCPAPEFLGGPSVFLFPPKPKDTLMISRTPEVTCVVVDVSQEDPEVQFNWYVDGVEVHNAKTKPREEQFNSTYRVVSVLTVLHQDWLNGKEYKCKVSNKGLPSSIEKTISKAKGQPREPQVYTLPPCQEEMTKNQVSLWCLVKGFYPSDIAVEWESNGQPENNYKTTPPVLDSDGSFFLYSRLTVDKSRWQEGNVFSCSVMHEALHNHYTQKSLSLSLGKGGGGSGGGGSGGGGSDVQLQESGGGLVQPGGSLRLSCAASGFRFSNYAMRWYRQAPGKEREFVARISSTGFITRYTASVRDRFTISRDNDKNMMYLQLNKLTPQDTAHYYCNAESTDYWGQGTQVTVS
chain 2: GPPCPPCPAPEFLGGPSVFLFPPKPKDTLMISRTPEVTCVVVDVSQEDPEVQFNWYVDGVEVHNAKTKPREEQFNSTYRVVSVLTVLHQDWLNGKEYKCKVSNKGLPSSIEKTISKAKGQPREPQVCTLPPSQEEMTKNQVSLSCAVKGFYPSDIAVEWESNGQPENNYKTTPPVLDSDGSFFLVSRLTVDKSRWQEGNVFSCSVMHEALHNHYTQKSLSLSLGKGGGGSGGGGSGGGGSEVQLLESGGGLVQPGGSLRLSCAASGFTFGNYDMAWVRQAPGKRPEWVSSIDTGGDITHYADSVKGRFTISRDNAKNTLYLQMNSLRPEDTAVYWCATDEEYALGPNEFDYYGQGTLVTVSS
B6: NIgG4F1A1(G4S)2 (Fc fusion)
chain 1: DVQLQESGGGLVQAGGSLKLSCAASGGSLSRYDMGWFRQAPGKEREFVARISWSGTTKYYADAVKGRFAISRDNAKNTVYLQMNSLKPEDTAVYYCAAAFYGNRGYYDVNAYTSSGQGTQVTVSGGGGSGGGGSGPPCPPCPAPEFLGGPSVFLFPPKPKDTLMISRTPEVTCVVVDVSQEDPEVQFNWYVDGVEVHNAKTKPREEQFNSTYRVVSVLTVLHQDWLNGKEYKCKVSNKGLPSSIEKTISKAKGQPREPQVYTLPPCQEEMTKNQVSLWCLVKGFYPSDIAVEWESNGQPENNYKTTPPVLDSDGSFFLYSRLTVDKSRWQEGNVFSCSVMHEALHNHYTQKSLSLSLGK
chain 2: EVQLLESGGGLVQPGGSLRLSCAASGFTFGNYDMAWVRQAPGKRPEWVSSIDTGGDITHYADSVKGRFTISRDNAKNTLYLQMNSLRPEDTAVYWCATDEEYALGPNEFDYYGQGTLVTVSSGGGGSGGGGSGPPCPPCPAPEFLGGPSVFLFPPKPKDTLMISRTPEVTCVVVDVSQEDPEVQFNWYVDGVEVHNAKTKPREEQFNSTYRVVSVLTVLHQDWLNGKEYKCKVSNKGLPSSIEKTISKAKGQPREPQVCTLPPSQEEMTKNQVSLSCAVKGFYPSDIAVEWESNGQPENNYKTTPPVLDSDGSFFLVSRLTVDKSRWQEGNVFSCSVMHEALHNHYTQKSLSLSLGK
B7: CIgG4E4A1(G4S)2 (Fc fusion)
chain 1: GPPCPPCPAPEFLGGPSVFLFPPKPKDTLMISRTPEVTCVVVDVSQEDPEVQFNWYVDGVEVHNAKTKPREEQFNSTYRVVSVLTVLHQDWLNGKEYKCKVSNKGLPSSIEKTISKAKGQPREPQVYTLPPCQEEMTKNQVSLWCLVKGFYPSDIAVEWESNGQPENNYKTTPPVLDSDGSFFLYSRLTVDKSRWQEGNVFSCSVMHEALHNHYTQKSLSLSLGKGGGGSGGGGSDVQLQESGGGLVQPGGSLRLSCAASGFRFSNYAMRWYRQAPGKEREFVARISSTGFITRYTASVRDRFTISRDNDKNMMYLQLNKLTPQDTAHYYCNAESTDYWGQGTQVTVS
chain 2: GPPCPPCPAPEFLGGPSVFLFPPKPKDTLMISRTPEVTCVVVDVSQEDPEVQFNWYVDGVEVHNAKTKPREEQFNSTYRVVSVLTVLHQDWLNGKEYKCKVSNKGLPSSIEKTISKAKGQPREPQVCTLPPSQEEMTKNQVSLSCAVKGFYPSDIAVEWESNGQPENNYKTTPPVLDSDGSFFLVSRLTVDKSRWQEGNVFSCSVMHEALHNHYTQKSLSLSLGKGGGGSGGGGSEVQLLESGGGLVQPGGSLRLSCAASGFTFGNYDMAWVRQAPGKRPEWVSSIDTGGDITHYADSVKGRFTISRDNAKNTLYLQMNSLRPEDTAVYWCATDEEYALGPNEFDYYGQGTLVTVSS
B8: NIgG4F1A1(G4S)3 (Fc fusion)
chain 1: DVQLQESGGGLVQAGGSLKLSCAASGGSLSRYDMGWFRQAPGKEREFVARISWSGTTKYYADAVKGRFAISRDNAKNTVYLQMNSLKPEDTAVYYCAAAFYGNRGYYDVNAYTSSGQGTQVTVSGGGGSGGGGSGGGGSGPPCPPCPAPEFLGGPSVFLFPPKPKDTLMISRTPEVTCVVVDVSQEDPEVQFNWYVDGVEVHNAKTKPREEQFNSTYRVVSVLTVLHQDWLNGKEYKCKVSNKGLPSSIEKTISKAKGQPREPQVYTLPPCQEEMTKNQVSLWCLVKGFYPSDIAVEWESNGQPENNYKTTPPVLDSDGSFFLYSRLTVDKSRWQEGNVFSCSVMHEALHNHYTQKSLSLSLGK
chain 2: EVQLLESGGGLVQPGGSLRLSCAASGFTFGNYDMAWVRQAPGKRPEWVSSIDTGGDITHYADSVKGRFTISRDNAKNTLYLQMNSLRPEDTAVYWCATDEEYALGPNEFDYYGQGTLVTVSSGGGGSGGGGSGGGGSGPPCPPCPAPEFLGGPSVFLFPPKPKDTLMISRTPEVTCVVVDVSQEDPEVQFNWYVDGVEVHNAKTKPREEQFNSTYRVVSVLTVLHQDWLNGKEYKCKVSNKGLPSSIEKTISKAKGQPREPQVCTLPPSQEEMTKNQVSLSCAVKGFYPSDIAVEWESNGQPENNYKTTPPVLDSDGSFFLVSRLTVDKSRWQEGNVFSCSVMHEALHNHYTQKSLSLSLGK

The binders below were run against mixture of three Der p 2 specific recombinant human IgE clones H10, H12, P4E (human) (UniProt P01854) (assay: RBL-SX38 IgE displacement, FACS).
Sequence of mixture of three Der p 2 specific recombinant human IgE clones H10, H12, P4E (human) (P01854 other isoform, or with tags, fused parts or gaps): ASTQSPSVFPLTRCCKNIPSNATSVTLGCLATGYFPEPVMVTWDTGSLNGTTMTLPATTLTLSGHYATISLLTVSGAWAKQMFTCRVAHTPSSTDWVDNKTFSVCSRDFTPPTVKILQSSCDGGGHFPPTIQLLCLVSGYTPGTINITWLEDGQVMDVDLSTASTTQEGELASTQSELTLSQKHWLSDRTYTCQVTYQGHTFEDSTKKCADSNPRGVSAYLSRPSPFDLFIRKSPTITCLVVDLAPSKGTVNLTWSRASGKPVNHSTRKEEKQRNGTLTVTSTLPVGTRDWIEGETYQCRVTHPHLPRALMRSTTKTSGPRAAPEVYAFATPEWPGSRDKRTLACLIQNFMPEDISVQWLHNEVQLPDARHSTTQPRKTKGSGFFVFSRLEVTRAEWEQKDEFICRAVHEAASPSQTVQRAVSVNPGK
In the case of B1, the Max effect/effect 1 µM is reported as 0%.
B2 was tested, and the EC50 was 2.6 nM and the Max effect/effect 1 µM was 92%.
For B3, the EC50 was 3.5 nM and the Max effect/effect 1 µM was 88%.
In the case of B4, the EC50 is reported as 242 nM and the Max effect/effect 1 µM is reported as 87%.
In the case of B5, the EC50 is reported as 31.6 nM and the Max effect/effect 1 µM is reported as 98%.
B6 showed an EC50 of 2.1 nM and a Max effect/effect 1 µM of 95%.
For B7, the EC50 was 107 nM and the Max effect/effect 1 µM was 94%.
B8 was tested, and the EC50 was 35.5 nM and the Max effect/effect 1 µM was 92%.
